The results in this text go back to publication PMC2798008.

In this data set the target is T1, SaeRHis (Staphylococcus aureus USA300, UniProt Q2FIT4 1-228).
T1 sequence: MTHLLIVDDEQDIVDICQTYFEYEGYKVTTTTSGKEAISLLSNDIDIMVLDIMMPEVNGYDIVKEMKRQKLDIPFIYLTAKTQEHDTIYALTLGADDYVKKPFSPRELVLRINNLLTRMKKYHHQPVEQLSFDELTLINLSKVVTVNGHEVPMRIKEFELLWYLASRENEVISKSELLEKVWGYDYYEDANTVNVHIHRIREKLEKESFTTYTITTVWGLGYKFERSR
Briefly: EMSA. On the technique in general: Mobility shift assays separate free from complexed probe on a gel.

B1: agrB promoter (dsDNA)
DNA 1: ATTTAACAGTTAAGTATTTATTTCCTACAGTTAGGCAATATAATGATAAA
DNA 2: TTTATCATTATATTGCCTAACTGTAGGAAATAAATACTTAACTGTTAAAT
In the case of B1, the binding result is listed as “no binding”.

B2: sbi promoter (dsDNA)
DNA 1: CACTAGTTAATCTATTAGTTAACATTAGTTAATAATTAGTTAATTTCCAT
DNA 2: ATGGAAATTAACTAATTATTAACTAATGTTAACTAATAGATTAACTAGTG
B2: the binding result is “binds”.
